Results as given in the nanobody polyreactivity screen of Harvey et al. (2022).

Assay: yeast display, Sf9 membrane polyspecificity reagent, FACS + sequencing; frameworks hold sequencing errors
Procedure, shortened: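 Nanobodies from a synthetic yeast display library (Saccharomyces cerevisiae BJ5465), induced 36–48 hours with galactose, were stained 1 hour at 4 °C with 10% biotinylated, detergent-solubilized Sf9 membrane reagent, enriched on streptavidin microbeads, then FACS-sorted. Anti-HA (expression) and streptavidin (reagent binding) fluorescence set low and high (top ~1%) gates. Polyreactivity labels come from the gate of origin. Genes were colony-PCR amplified, MiSeq 2 × 250 sequenced and filtered by CDR length.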

Sequence	polyreactivity (PSR sort gate)
QVQLVESGGGLVQAGGSLRLSCAASGRIIPYYAMGWYRQAPGKERELVASTNYADSVKGRFTISRDNAKNTVYLQMNSLKPEDTAVYYCAADGYRYSVYLIRNPMDYWGQGTQVTVSS	low polyreactivity
QVQLVESGGGLVQAGGSLRLSCAASGRIIRAYDMGWYRQAPGKERELVAVIRYRGGTTYYADSVKGRFTISRDNAMNTVYLQMYSLKPEDTAVYYCATEDNYHWWYTGVSYGEHDYLGQGTQVTVSS	low polyreactivity
QVQLVESGGGLVQAGGSLRLSCAASGRIIRSNVMGWYRQAPGKERDLVAGISRSGGSTYYADSVKGRFTISRDNAKNTVYLKMNSLKPEDTAVYYCNAGWWYLGSPFDRDYWGQGTQVTVSS	high polyreactivity
QVQLVESGGGLVQAGGSLRLSCAASGRIISHYAMGWYRQAPGKDRELVAAISRSGVSTYYADSVKGRFTISRDNAKNTVYLQMNSLKPEDTAVYYCNRRYDRGPYDYWGQGTQVTVSS	low polyreactivity
QVQLVESGGGLVQAGGSLRLSCAASGRIITGYAMGWYRQAPGKERELVAAISRGGSTNYADSVKGRFTISRDNAKNTVYLQMNSLKPEDTAVYYCAAGVHWDRGDYWGQGTQVTVSS	low polyreactivity
QVQLVESGGGLVQAGGSLRLSCAASGRIITYNAMGWYRQAPGKERELVAAISTTGGRTYYADSVKGRFTISRDNAKNTVYLQMNSLKPEDTAVYYCNAVLKRPLAYHVTYDYWGQGTQVTVSS	high polyreactivity
QVQLVESGGGLVQAGGSLRLSCAASGRIIYGYAMGWYRQAHGKERELVASITATYYADSVKGRFTISLDNSKNTVYLQMNSLIPEDTAVYYCNAYLSPKHPLSRPDPTFEGGYRGQGTQVTVSS	low polyreactivity
QVQLVESGGGLVQAGGSLRLSCAASGRIIYGYAMGWYRQAPGKERELVAAISASGGRTYYADSVKGRFTISRDHAKNTVYLQMNSLKPEDTAVYYCAADDVGPPDFYYWGQGTQVTVSS	high polyreactivity
QVQLVESGGGLVQAGGSLRLSCAASGRIIYGYARGWYRQAPGKERELVAAISASGGRTYYADSVKGRFTISRDNAKNTVYLQMNSLKPEDTAVYYCARARFYWLTQWSYDYWGQGTQVTVSS	high polyreactivity
QVQLVESGGGLVQAGGSLRLSCAASGRILAPYVMGWYRQAPGKERELVAAISRSTGRTYYADSVKGRFTISRDNAKNTVYLQMNSLKPEDTAVYYCNRDVRVSLMGYWGQGTQVTVSS	high polyreactivity
QVQLVESGGGLVQAGGSLRLSCAASGRILASYAMGWYRQAPGKERELVAAISRSGGSTYYADSVKGRFTISRDNAKNTVYLQMNSLKPEDTAVYYCAAKYPQKTPVNSYGNSFYYWGQGTQVTVSS	high polyreactivity
QVQLVESGGGLVQAGGSLRLSCAASGRILAYNVMGWYRQAPGKEREFVASIRRTGVRTYYADSVKGRFTISRDNAKNTVYLQMNSLKPEDTAVYYCNAANFNFWDYYYWGQGTQVTVSS	low polyreactivity
QVQLVESGGGLVQAGGSLRLSCAASGRILAYYAMGWYRQAPGKERELVAAITSGGRTYYADSVKGRFTISRDNAKNTVYLQMNSLKPEDTAVYYCNAVYGYWYGSWGQGTQVTVSS	high polyreactivity
QVQLVESGGGLVQAGGSLRLSCAASGRILAYYAMGWYRQAPGKERELVAAITSGGRTYYADSVKGRFTISRDNAKNTVYLQMNSLKPEDTPVYYCNAVYGYWYGSWGQGTQVTVSS	high polyreactivity
QVQLVESGGGLVQAGGSLRLSCAASGRILDYNAMGWYRQAPGKERELVADISGSGDSTYYADSVKGRFTISRDNAKNTVYLQMNSLKPEDTAVYYCAASGAWDWWLGPYDDYYWGQGTQVTVSS	low polyreactivity
QVQLVESGGGLVQAGGSLRLSCAASGRILDYYAMGWYRQAPGKERELVAAISRSGSDTYYADSVKGRFTISRDNAKNTVYLQMNSLKPEDTAVYYCAARWSYRSLARYNYWGQGTQVTVSS	low polyreactivity
QVQLVESGGGLVQAGGSLRLSCAASGRILEGYSMGWYRQAPGKERELVAAISFSTTTTYYADSVKGRFTISRDNAKNTVYVQMNILKPEDTAVYYCAADSQQSDYDYWGQGTQVTVSS	high polyreactivity
QVQLVESGGGLVQAGGSLRLSCAASGRILEVYAMGWYRQAPGKERELVAAIRWSDGNTYYADSVKGRFTISRDNAKNTVYLQMNSLKPEDTAVYYCAARTPGGYDWGQGTQVTVSS	high polyreactivity
QVQLVESGGGLVQAGGSLRLSCAASGRILGAYAMGWYRQAPGKERELVASISSGGRTYYADSVKGRFTISRDNAKNTVYLQMNSLKPEDTAVYYCNAKVRRRKYDYWGQGTQVTVSS	high polyreactivity
QVQLVESGGGLVQAGGSLRLSCAASGRILGFYAMGWDRQAPGKERELVARINWSGTRTYYADSVKGRFTISRDNAKNTVYLQMNSLKPEDTAVYYCAAERYPYVVTYSKLDYWGQGTQVTVSS	high polyreactivity
QVQLVESGGGLVQAGGSLRLSCAASGRILGKNTMGWYRQAPGKEREFVAAISASGGRTYYADSVKGRFTISRDNAKYTVYLQMNSLKPEDTAVYYCAAARSRYSYATGFDYWGQGTQVTVSS	high polyreactivity
QVQLVESGGGLVQAGGSLRLSCAASGRILGRKAMGWYRHAPGKEREYVAAISSGGNTYYADSVKGRFTISRDNAKNTVYLQMKSLKPEDTAVYYCNADPDTYVSTITHDSWGQGTQVTVSS	low polyreactivity

Sequence	polyreactivity (PSR sort gate)
QVQLVESGGGLVQAGGSLRLSCAASGRILGRYAMGWYRQAPGKERELVAAITSGGNTTYADSVKGRFTISRDNAKNTVYLQMNSLKPEDTAVYYCAAYSYTQLNLMDYWGQGSQVTVSS	low polyreactivity
QVQLVESGGGLVQAGGSLRLSCAASGRILHEYAMGWYRQAPGKERELVAAITFSGTSTYYADSVKGRFTISRDNAKNTVYLQMNSLKPEDTAVYYCAADTYGGSRDYWGQGTQVTVSS	low polyreactivity
QVQLVESGGGLVQAGGSLRLSCAASGRILHGYTMGWYRQAPGKERELVAAITSGGSTYYADSVKGRFTISRDNAKNTVYLQMNSLKPEDTAVYYCAAASYRHEEYYWGQGTQVTVSS	high polyreactivity
QVQLVESGGGLVQAGGSLRLSCAASGRILIVNTMGWYRQAPGKERELVAAISSGGTTYYADSVKGRFTISRDNAKNTVYLQMNSLKPEDTAVYYCAAKRAGAEYDYWGQGTQVTVSS	high polyreactivity
QVQLVESGGGLVQAGGSLRLSCAASGRILKYYAMGWYRQAPGKERELVAAITSDVNTYYADSVKGRFTISRDNAKNTVYLQMNSLKPEDTAVYYCNADADDYRDYQDYDYWGQGTQVTVSS	low polyreactivity
QVQLVESGGGLVQAGGSLRLSCAASGRILLFYAMGWYRQAPGKERELVASIDYSGGSTTYADSVKGRFTISRDNAKNTVYLQMNRLKPEDTAVYYCNAEAWWYFWFDYWGQGTQVTVSS	low polyreactivity
QVQLVESGGGLVQAGGSLRLSCAASGRILPRNAMGWYRQAPGKERELVAAISWDGGSTYYADSVKGRFTISRDNAKNTVYLPMIRLKPEDTAVYYCATDYPSLHRGMDYWGQGTQVTVSS	low polyreactivity
QVQLVESGGGLVQAGGSLRLSCAASGRILPRNAMGWYRQAPGKERELVATIDYSVGSTYYADSVKGRFTISRDNAKNTVYLQMNSLKPEDTAVYYCNAQVLVRPIQGEYGYWGRGTQVTVSS	low polyreactivity
QVQLVESGGGLVQAGGSLRLSCAASGRILPRNSMGWSRQAPGKERELVAGISSDGSTKYADSVKGRFTISRDNAKNTVYLQMNSLKPEETAVYYCAADVVYDPNLYGYWGQGTQVTVSS	low polyreactivity
QVQLVESGGGLVQAGGSLRLSCAASGRILPWYAMGWYRQAPWKERELVAGISSNGGSTYYADSVKGRFTSSRDNPKNTVYLQMNSLKTEDTAVYYCAARVWYWRHYPSDYWGQGTQVTVSS	high polyreactivity
QVQLVESGGGLVQAGGSLRLSCAASGRILQYNVMGWYRQAPGKERELVATISSGGTTNYADSVKGRFTISRDNAKNTVYLQMNSLKPEDTAVYYCAAGLPRKRVQYDYWGQGTQVTVSS	low polyreactivity
QVQLVESGGGLVQAGGSLRLSCAASGRILRPNAMGWYRQAPGKEREMVAAISVSGGRTYYADSVKGRFTISRDNAKNTVYLQMNSLKPEDTAVYYCAAKYKRGYDYWGQGTQVTVSS	high polyreactivity
QVQLVESGGGLVQAGGSLRLSCAASGRILRTYAMGWYRQPPGKETELVAAITWSGASTYYADSVKGRFTISRDNAMNTVYLQMNSLKPEDTAVYYCNALSPGYRIYDYWGQGTQETVSS	high polyreactivity
QVQLVESGGGLVQAGGSLRLSCAASGRILSSYAMGWYRKAPGKERELVAVISSGGNTYYADSVKGRFTISRDNAKNTVYLQMNSLKPEDTAVYYCAAVRHRQTYTKYNYWGQGTKVTVSS	high polyreactivity
QVQLVESGGGLVQAGGSLRLSCAASGRILSWYAMGWYRQAPGKVRELVAAIDSGGRTNYADSVKGRFTISRDNAKNTVYLQMNSLKPEDTAVYYCAKEGYWPRYWERYDYWGQGTQVTLSS	low polyreactivity
QVQLVESGGGLVQAGGSLRLSCAASGRILSYYAMGWYRQAPGKERELVAAITRGGSTYYADSVKGRFTISRDNAKNTVYLQMNSLKPEDTAVYYCAARKKTTYRDWGRHDYWGQGTQVTVSS	high polyreactivity
QVQLVESGGGLVQAGGSLRLSCAASGRILSYYAMGWYRQAPGKETELVATISASGGSTYYADSVKGRFTISRDNAKNTVYLQMNSLKPEDTAVYYCAAARVPAYYLRYLYRTTYDYWGQGTQVTVSS	high polyreactivity
QVQLVESGGGLVQAGGSLRLSCAASGRILTNYVMGWYRQAPGKERELVAAITDSGGITYADSVKGRFTISRDNAKNTVYLQMNSLKPEDTAVYYCAAVRFFLYYFDFSAYDYWGQGTQVTVSS	low polyreactivity
QVQLVESGGGLVQAGGSLRLSCAASGRILTSNAMGWYRQAPGKERELVAAITYSGDSTYYADSVKGRFTISRDTAKNTVYLQMNSLKPEDTEVYYCAADVLKHFYSFGDERGFPFDYWGQGTQVTVSS	low polyreactivity
QVQLVESGGGLVQAGGSLRLSCAASGRILTTYAMGWYRQAPGKERELVAAITTIGGRTYYADSVKGRFTISRDNAKNTVYLQMNSLKPEDTAVYYCAADVYYEYDYWGQGTQVTVSS	low polyreactivity
QVQLVESGGGLVQAGGSLRLSCAASGRILTYYAMGWYRQAPGKERELVASISSNGGTYYADSVKGRFTISRDNAKNTVYLQMNSLKPEDTAVYYCNAKRVARYQYGASYNYWGQGTQVTVSS	high polyreactivity
